# Measurements: paper PMC5827659
# Key:
# Assay in all cases: FRET (FIRE system)
# [1] = biological target: FIRE construct Y-TMG-/C-TMG-CC1 L251S R304W, Q13586-1; details: HEK 293 cells; n=39; parent: est. 0.084; read off a plot
# [2] = biological target: FIRE construct Y-TMG-/C-TMG-CC1 R304K, Q13586-1; details: HEK 293 cells; n=52; parent: est. 0.084; read off a plot
# [3] = biological target: FIRE construct Y-TMG-/C-TMG-CC1α1α2 L251S R304W, Q13586-1; details: HEK 293 cells; n=9; parent: est. 0.077; read off a plot
# Sequence of FIRE construct Y-TMG-/C-TMG-CC1α1α2 L251S R304W, Q13586-1 (Q13586 whole entry L251S/R304W, looked up): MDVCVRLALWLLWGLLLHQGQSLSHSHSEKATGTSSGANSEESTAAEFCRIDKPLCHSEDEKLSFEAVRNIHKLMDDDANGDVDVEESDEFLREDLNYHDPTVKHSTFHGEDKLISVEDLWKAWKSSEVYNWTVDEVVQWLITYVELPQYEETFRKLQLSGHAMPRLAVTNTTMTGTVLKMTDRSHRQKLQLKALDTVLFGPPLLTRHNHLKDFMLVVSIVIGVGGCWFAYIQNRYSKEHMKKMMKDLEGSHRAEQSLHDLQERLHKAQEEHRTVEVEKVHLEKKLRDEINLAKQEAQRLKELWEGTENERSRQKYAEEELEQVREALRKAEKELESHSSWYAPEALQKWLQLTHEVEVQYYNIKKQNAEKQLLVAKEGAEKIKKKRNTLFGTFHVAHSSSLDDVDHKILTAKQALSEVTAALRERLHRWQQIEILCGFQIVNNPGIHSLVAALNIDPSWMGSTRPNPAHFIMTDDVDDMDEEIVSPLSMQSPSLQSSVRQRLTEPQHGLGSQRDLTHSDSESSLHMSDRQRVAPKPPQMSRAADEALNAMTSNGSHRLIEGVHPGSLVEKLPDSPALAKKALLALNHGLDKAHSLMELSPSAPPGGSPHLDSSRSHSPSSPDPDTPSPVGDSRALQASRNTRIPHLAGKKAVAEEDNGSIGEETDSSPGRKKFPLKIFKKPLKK
# [4] = biological target: FIRE construct Y-TMG-/C-TMG-CC1α1α2 R304K, Q13586-1; details: HEK 293 cells; n=18; parent: est. 0.077; read off a plot
# Sequence of FIRE construct Y-TMG-/C-TMG-CC1α1α2 R304K, Q13586-1 (Q13586 whole entry R304K, looked up): as the sequence (Q13586 whole entry L251S/R304W, looked up) above, with S251L, W304K counted along it
# Sequence of FIRE construct Y-TMG-/C-TMG-CC1 R304K, Q13586-1 (Q13586 whole entry R304K, looked up): as the sequence (Q13586 whole entry L251S/R304W, looked up) above, with S251L, W304K counted along it
# Sequence of FIRE construct Y-TMG-/C-TMG-CC1 L251S R304W, Q13586-1 (Q13586 whole entry L251S/R304W, looked up): as the sequence (Q13586 whole entry L251S/R304W, looked up) above
substance,measurement,setting,value
FIRE construct Y-TMG-/C-TMG-CC1 (STIM1 CC1 233–343) wild type (from UniProt Q13586-1) L251S; R304W,response,[1],0.096 Eapp
FIRE construct Y-TMG-/C-TMG-CC1 (STIM1 CC1 233–343) wild type (from UniProt Q13586-1) R304K,response,[2],0.074 Eapp
FIRE construct Y-TMG-/C-TMG-CC1α1α2 (STIM1 233–309) wild type (from UniProt Q13586-1) L251S; R304W,response,[3],0.091 Eapp
FIRE construct Y-TMG-/C-TMG-CC1α1α2 (STIM1 233–309) wild type (from UniProt Q13586-1) R304K,response,[4],0.06 Eapp
